Source: patent EP4714976A1

The binders below were run against extracellular domain of the FGFR2b protein (NP_075259.4) (UniProt P21802) (assay: phage ELISA).
Chain of extracellular domain of the FGFR2b protein (NP_075259.4) (P21802 other isoform, or with tags, fused parts or gaps): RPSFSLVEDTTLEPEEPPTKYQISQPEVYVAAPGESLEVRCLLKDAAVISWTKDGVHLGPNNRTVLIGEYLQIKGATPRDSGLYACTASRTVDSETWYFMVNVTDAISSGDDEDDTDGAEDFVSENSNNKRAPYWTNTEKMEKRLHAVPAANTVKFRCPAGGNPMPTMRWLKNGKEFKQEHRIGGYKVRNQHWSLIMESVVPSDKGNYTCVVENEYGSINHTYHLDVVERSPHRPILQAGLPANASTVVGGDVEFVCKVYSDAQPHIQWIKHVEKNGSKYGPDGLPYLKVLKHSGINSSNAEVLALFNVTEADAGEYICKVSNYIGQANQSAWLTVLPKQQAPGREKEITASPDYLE

Row | Binder | OD (450 nm) value
1 | 1B8 scFv displayed on phage (scFv) scFv: QIQLQQSGAELVKPGASVKMSCKASGYTFASYNLHWVKQTPGQGLEWIGLIYPENGDTSYNQKFKGKATLTADTSSTTAYIQLSSLTSEDSAVYFCARGGFDYWGQGTSLTVSSGGGGSGGGGSGGGGSDIKMTQSPASLSASVGETVTITCGASENIYGALNWYQRKQGKSPQLLIYGATNLADGMSSRFSGSGSGRQYSLKISSLHPDDVATYYCQNVLSTPYTFGGGTKLEIK | 2.65
2 | 3E3 scFv displayed on phage (scFv) scFv: QVQLQQPGAVLVKPGASVRMSCKASGYTFPYYNVHWVKRTPGQGLEWIGLIYPDNGDTSYNQKFTGKATLTADTSSSTAYMQLSSLTSEDSAVYYCARGGLDYWGQGTTLTVSAGGGGSGGGGSGGGGSDVQITQSPASLSASVGETVTITCGASENIYGALNWYQRKQGKSPQLLIYGATNLADGMSSRFSGSGSGRQYSLKISSLHPDDVATYYCQNVLSTPYTFGGGTKLEIK | 2.28
3 | 1D7 scFv displayed on phage (scFv) scFv: QIQLQQSGAELVKPGASVKMSCKASGYTFRYYNMHWVKRTPGQGLEWIGLIYPDNGDTSYNQKFKGKATLTADTSSSTAYMQLSSLTSEDSAVYYCARGGLDYWGQGTSLTVSSGGGGSGGGGSGGGGSDIQMTQSPSSMSASLGDRITITCQATQDIVKNLNWYQQKPGKPPSFLIYYATELAEGVPSRFSGSGSGSDYSLTISNLESEDFADYYCLQFYEFPLTFGAGTKLELK | 2.14
4 | 3E7 scFv displayed on phage (scFv) scFv: QVQLQQSGAELVKPGASVKMSCKASGYTFTIYNIHWVRQTPGQGLEWIGLIYPDNGDTSYNQKFKAKATLTADKSSSTAYMQLSSLTSEDSAVYYCARGGFDYWGQGTTLTVSSGGGGSGGGGSGGGGSNIVMTQSQKFMSTSVGDRVSVTCKASQNVGTNVAWYQQKPGQSPKALIYSASYRYSGVPDRFTGSGSGTDFTLTISGVQAEDLADYYCQQHYNTPYTFGGGTKLEIK | 1.88
5 | 3H6 scFv displayed on phage (scFv) scFv: QVQLQQSGAELVKPGASVKMSCKASGYTFSFYNIHWVRQTPGQGLEWIGLIYPDNGDTSYNQKFKAKATLTADKSSSTAYMQLSSLTSEDSAVYYCARGGFDYWGQGTTLTVSSGGGGSGGGGSGGGGSDIQMTQSPASLSASVGETVTITCRASENIYSYLAWYQQKQGKSPQLLVYNAKTLAEGVPSRFSGSGSGTQFSLKINSLQPEDFGSYYCQHHYGTPYTFGGGTKLEMK | 2.29
6 | 3F5 scFv displayed on phage (scFv) scFv: EIQLQQSGAELVKPGASVKMSCKASGYTFRYYNMHWVKRTPGQGLEWIGLIYPDNGDTSYNQKFKGKATLTADTSSSTAYMQLSSLTSEDSAVYYCARGGLDYWGQGTTLTVSSGGGGSGGGGSGGGGSDIVLTQSPASLSASVGETVTITCGASENIYGALNWYQRKQGKSPQLLIYGATNLADGMSSRFSGSGSGRQYSLKISSLHPDDVATYYCQNVLSTPYTFGGGTKLEIK | 1.94
7 | 1A3 scFv displayed on phage (scFv) scFv: QVQLQQPGAELVKPGASVKMSCKASGYTFASYNLHWVKQTPGQGLEWIGLIYPENGDTSYNQKFKGKATLTADKSSSTAYIQLSSLTSEDSAVYFCARGGFDYWGQGTTLTVSQGGGGSGGGGSGGGGSDIQMTQSPASLSASVGETVTITCGASENIYGALNWYQRKQGKSPQLLIYGATNLADGMSSRFSGSGSGRQYSLKISSLHPDDVATYYCQNVLSTPYTFGGGTKLEIK | 2.67
8 | 3F10 scFv displayed on phage (scFv) scFv: EVQLQQSGAELVKPGASVKMSCKASGYTFSFYNIHWVRQTPGQGLEWIGLIYPDNGDTSYNQKFKAKATLTADKSSSTAYMQLSSLTSEDSAVYYCARGGFDYWGQGTTLTVSSGGGGSGGGGSGGGGSDVLMTQSPASLSASVGETVTITCGASENIYGALNWYQRKQGKSPQLLIYGATNLADGMSSRFSGSGSGRQYSLKISSLHPDDVATYYCQNVLSTPYTFGGGTKLEIK | 1.85
9 | 2B2 scFv displayed on phage (scFv) scFv: QLQLQQSGAELVKPGASVKMSCKASGYTFASYNLHWVKQTPGQGLEWIGLIYPENGDTSYNQKFKDKATLTADKSSTTAYIQLSSLASEDSAVYFCARGGFDYWGQGTTLTVSSGGGGSGGGGSGGGGSDIVMTQSQKFMSTSVGDRVSVTCKASQNVGTNVAWYQQKPGQSPKALIYSASYRYSGVPDRFTGSGSGTDYTLTISSVQAEDLALYYCQQHYSTPYTFGGGTKLELK | 2.38
10 | 3G10 scFv displayed on phage (scFv) scFv: EVQLQQSGPELVKPGASVKMSCKASGYTFATYNMHWVKQTTGQGLEWIGAIYPDNGDTFYNRKFKDKATLTADKSSTTAYMQLSSLTSEDSAVYYCARGDFAYWGQGTLVTVSAGGGGSGGGGSGGGGSDVLMTQSPASLSASVGETVTITCGASENIYGALNWYQRKQGKSPQLLIYGATNLADGMSSRFSGSGSGRQYSLKISSLHPDDVATYYCQNVLSTPYTFGGGTKLEMK | 1.95
11 | 3A3 scFv displayed on phage (scFv) scFv: QVQLQQSGAELVKPGASVKMSCKASGYTFTTYNIHWVRQTPGQGLEWIGLIYPDNGDTSYNQKFKAKATLTADKSSSTAYMHLSSLTSEDSAVYYCARGGFDYWGQGTTLTVSSGGGGSGGGGSGGGGSDIVMTQSHKFMSTSVGDRVSITCKASQDVNTDVSWYQQKPGQSPKLLIYSASYRYTGVPTRFTGSGSGTDFTFTISGVQAEDLADYYCQQHYNTPYTFGGGTRLEIK | 2.33
12 | 3A8 scFv displayed on phage (scFv) scFv: QVQLQQSGAELVKPGASVKMSCKASGYTFTIYNIHWVRQTPGQGLEWIGLIYPDNGDTSYNQKFKAKATLTADKSSSTAYMQLSSLTSEDSAVYYCARGGFDYWGQGTSLTVSSGGGGSGGGGSGGGGSDIVMTQSQKFMSTSVGDRVSVTCKASQNVGTNVAWYQQKPGQSPKALIYSASYRYSGVPDRFTGSGSGTDFTLTISNVQAEDLADYFCQQHYSTPYTFGGGTKLEMK | 2.22
13 | 3B4 scFv displayed on phage (scFv) scFv: EVQLQQSGADLVKPGASVKMSCKASGYTFSYYNMHWVRRTPGQGLEWIGLIYPDNGDTSYNQKFKGKATLTADTSSSTAYMQLSSLTSEDSAVYYCARGGLDYWGQGTTLTVSSGGGGSGGGGSGGGGSDIQMIQSPASMSASVGETVTITCGASENIYGALNWYQRKQGKSPQLLIYGATNLADGMSSRFSGSGSGRQYSLKISSLHPDDVATYYCQNVLSTPYTFGGGTKLEMK | 2.47
14 | 3C7 scFv displayed on phage (scFv) scFv: EIQLQQSGAELVKPGASVKMSCKASGYIFRNYYIHWVKRTPGQGLEWIGAIYPDNGDTSYNQRFKVKATLTADTSSSTAYMQLSSLTSEDSAVYYCARAFTYWGQGTTLTVSSGGGGSGGGGSGGGGSDIQMIQSPASLSASVGETVTITCGASENIYGALNWYQRKQGKSPQLLIYGATNLADGMSSRFSGSGSGRQYSLKISSLHPDDVATYYCQNVLSTPYTFGGGTKLEIK | 2.02
15 | 3B7 scFv displayed on phage (scFv) scFv: EVQLQQSGAELVKPGASVKMSCKASGYTFRYYNMHWVKRTPGQGLEWIGLIYPDNGDTSYNQKFKGKATLTADTSSSTAYMQLSSLTSEDSAVYYCARGGFDYWGQGTTLTVSSGGGGSGGGGSGGGGSDIQMTQSPASLSASVGETVTITCGASENIYGALNWYQRKQGKSPQLLIYGATNLADGMSSRFSGSGSGRQYSLKISSLHPDDVATYYCQNVLSTPYTFGGGTKLELK | 2.03
